Results taken from paper PMC4474532.

Biological target: PERK luminal domain W165A (UniProt Q9NZJ5)
Assay: sedimentation velocity AUC

PERK luminal domain W165A, sequence (Q9NZJ5 105-403 W164A/Q166R): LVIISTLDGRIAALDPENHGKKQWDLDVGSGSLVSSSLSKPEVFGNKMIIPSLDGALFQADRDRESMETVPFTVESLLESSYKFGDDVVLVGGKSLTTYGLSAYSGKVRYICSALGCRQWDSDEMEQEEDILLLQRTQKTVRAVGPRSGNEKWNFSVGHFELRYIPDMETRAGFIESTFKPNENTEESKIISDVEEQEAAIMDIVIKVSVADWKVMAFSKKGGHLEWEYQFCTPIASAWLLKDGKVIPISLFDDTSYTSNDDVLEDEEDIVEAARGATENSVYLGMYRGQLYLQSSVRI

## human PERK luminal domain (residues 105–403) (from UniProt Q9NZJ5) W165A
parent: 0
  other: % (change in tetramer against wild-type): -23%
parent: 0.73
  other: tetramer (relative to dimer = 1): 0.56
